Laboratory results taken from publication PMC2198810.

How the values were obtained:
[1] = target: actin (African green monkey (endogenous in CV1)); assay: pull-down
[2] = target: gelsolin (African green monkey (endogenous in CV1)); assay: co-IP

profilin (natural protein)
decrease in profilin bound to actin, PIP5KI-overexpressing against β-gal cells [1]: 51%

gelsolin (natural protein)
actin:gelsolin staining intensity ratio, PIP5KI-overexpressing cells [1]: 1.25
actin:gelsolin staining intensity ratio, β-gal cells [1]: 1.91

actin (natural protein)
actin:gelsolin 35S intensity ratio, PIP5KI-overexpressing cells [2]: 25.7%
actin:gelsolin 35S intensity ratio, β-gal cells [2]: 39.4%
